Measured values: PMC7320144 (Nature Communications, 2020)

What was measured:
[1] = target: T1, PfISN1 (IMP-specific nucleotidase 1) (Plasmodium falciparum, UniProt A0A144A134); assay: crystal structure; enzyme activation at pH […]; format: biochemical
T1 construct: gene ISN1; wild-type, full-length

[2] = test system: O=[N+]([O-])c1ccc(OP(=O)(O)O)cc1; assay: purified protein; format: biochemical, Plasmodium falciparum; details: Mg2+; 25.0 °C
[3] = target: PfISN1 D172N (full-length inactive mutant) (Plasmodium falciparum); assay: crystal structure
[4] = target: PfISN1 D172N-ΔN30 (Plasmodium falciparum); assay: crystal structure
[5] = target: the molecule itself; assay: crystal structure; vapour diffusion in sitting drops at 292 K; protein 13 mg/mL in 50 mM Tris-HCl pH 8.0, 100 mM NaCl (or 50 mM MES pH 5.0, 100 mM NaCl); apo, ATP-bound or IMP-Mg2+-bound forms; homo-tetramer

Nc1ncnc2c1ncn2[C@@H]1O[C@H](COP(=O)(O)OP(=O)(O)OP(=O)(O)O)[C@@H](O)[C@H]1O [ATP]
EC50 [1]: 3.8 ± 0.7 mM

PfISN1 (IMP-specific nucleotidase 1) (Plasmodium falciparum 3D7; D172N)
Km [2]: 1510 ± 150 µM | kcat [2]: 0.28 ± 0.01 s⁻¹ | kcat/Km [2]: 190 ± 20 M⁻¹ s⁻¹

PfISN1 D172N (full-length inactive mutant) (from UniProt A0A144A134 1-444) (enzyme)
stoichiometry N [3]: 4

PfISN1 D172N-ΔN30 (from UniProt A0A144A134 31-444) (domain or fragment)
stoichiometry N [4]: 4

B1: PfISN1-ΔC10 (domain or fragment, Plasmodium falciparum, UniProt A0A144A134 1-434, looked up)
chain: MKNLDINTFDNIEDIPLGSSEQDPYDFFTLSDRNVMNSDMKKNIVQWNSRYSYNQLKNKDSLIMFLVEIFRSLFVSNCIDKNIDNVLLSIEEMFIDHYYNPQHSRLKYLIDDVGIFFTKLPITKAFHTYNKKYRITKRLYAPPTFNEVRHILNLAQILSLEEGLDLLTFDADETLYPDGHDFNDEVLASYISCLLKKMNIAIVTAASYNNDAEKYQKRLENLLKYFSKHNIKDGSYKNFYVMGGESNYLFKCNEEATLYSVPENEWRHYKKFVDYDTVQEILNISEKCLEKVIKDFGLCAQIQRKEKSIGLVPNKIPSLNIKNEQKNYMIKYEVLEEAVIRIKKEIIKNKITAPYCAFNGGQDLWVDVGNKAEGLLILQKLLKIQKKKCCHIGDQFLHSGNDFPTRFCSLTLWVSNPQETKACLKSIMHLNIKS
notes: PfISN1 (444 amino acids, gene PF3D7_1206100) truncated by ten residues at the C-terminus; Construct details are in Supplementary Methods; also called ∆C10-truncated PfISN1; source: E. coli BL21-CodonPlus (DE3)-RIL (structural studies), purified
stoichiometry N [5]: 4

B2: Plasmodium falciparum IMP-specific nucleotidase 1 (PfISN1), wild type (enzyme, UniProt A0A144A134 1-444, looked up)
chain: MKNLDINTFDNIEDIPLGSSEQDPYDFFTLSDRNVMNSDMKKNIVQWNSRYSYNQLKNKDSLIMFLVEIFRSLFVSNCIDKNIDNVLLSIEEMFIDHYYNPQHSRLKYLIDDVGIFFTKLPITKAFHTYNKKYRITKRLYAPPTFNEVRHILNLAQILSLEEGLDLLTFDADETLYPDGHDFNDEVLASYISCLLKKMNIAIVTAASYNNDAEKYQKRLENLLKYFSKHNIKDGSYKNFYVMGGESNYLFKCNEEATLYSVPENEWRHYKKFVDYDTVQEILNISEKCLEKVIKDFGLCAQIQRKEKSIGLVPNKIPSLNIKNEQKNYMIKYEVLEEAVIRIKKEIIKNKITAPYCAFNGGQDLWVDVGNKAEGLLILQKLLKIQKKKCCHIGDQFLHSGNDFPTRFCSLTLWVSNPQETKACLKSIMHLNIKSFIPEVLYENQ
notes: IMP-specific 5'-nucleotidase 1 (ISN1, EC 3.1.3.99) of Plasmodium falciparum, 444 amino acids, gene PF3D7_1206100; domains M1-K59 (NTRD), D60-T143 (OD), F144-K270 and K371-Q444 (CD), K271-N370 (cap); Cloned into pET-21bN; details of constructs and of purification for structural studies are in Supplementary Methods; A selenomethionine derivative (E. coli B834 (DE3)) was used for phasing; also …
stoichiometry N [5]: 4

B3: PfISN1-ΔN59 (domain or fragment, Plasmodium falciparum, UniProt A0A144A134 60-444, looked up)
chain: DSLIMFLVEIFRSLFVSNCIDKNIDNVLLSIEEMFIDHYYNPQHSRLKYLIDDVGIFFTKLPITKAFHTYNKKYRITKRLYAPPTFNEVRHILNLAQILSLEEGLDLLTFDADETLYPDGHDFNDEVLASYISCLLKKMNIAIVTAASYNNDAEKYQKRLENLLKYFSKHNIKDGSYKNFYVMGGESNYLFKCNEEATLYSVPENEWRHYKKFVDYDTVQEILNISEKCLEKVIKDFGLCAQIQRKEKSIGLVPNKIPSLNIKNEQKNYMIKYEVLEEAVIRIKKEIIKNKITAPYCAFNGGQDLWVDVGNKAEGLLILQKLLKIQKKKCCHIGDQFLHSGNDFPTRFCSLTLWVSNPQETKACLKSIMHLNIKSFIPEVLYENQ
notes: PfISN1 (444 amino acids, gene PF3D7_1206100) with the N-terminal regulatory domain (NTRD, M1 to K59) deleted; limits worked out from the name ΔN59 and the printed domain limits; Co-crystallized with IMP, IMP not observed in the structure; Construct details are in Supplementary Methods; also called ∆N59-truncated PfISN1; source: E. coli BL21-CodonPlus (DE3)-RIL (structural studies), purified
stoichiometry N [5]: 4
